Measurements published in patent CN114057881A (HANGZHOU XIANZHI BIOTECHNOLOGY CO LTD, dated 2022).

B1: 抗氯胺酮(KET)特异性抗体6B2 (antibody, V domains shown)
VH: EVQLQQSGAELLKPGASVKLSCTASGFNIKDTYIHWVKQRPEQGLEWIGRIDPANGHTYYDPQFQGKATLTADTSSNTAYLQLSSLTSEDSAIYYCARFGEDWGQGTLVTVSA
VL: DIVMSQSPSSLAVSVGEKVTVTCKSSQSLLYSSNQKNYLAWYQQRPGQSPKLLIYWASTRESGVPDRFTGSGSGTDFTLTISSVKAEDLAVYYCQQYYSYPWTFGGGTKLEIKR
notes: also called 6B2单抗
B2: 抗氯胺酮(KET)特异性抗体4A1 (antibody, V domains shown)
VH: EVRLEESGGGLVQPGGSMKLSCVASGFTFSNYWMNWVRQSPEKGLEWVDEIKLKSNNYETHCVESVKGRFTISRDDSKSSVYLQMNNLRAEDTGIYYCARRGYGTYYAMDYWGQGTSVIVSS
VL: DVQITQSPSYLAASPGETITINCRASKSIRKYLAWYQEKPGKTNKLLIYSGSTLRSGTPSRFSGSGSGTDFTLTISSLEPEDFAMYYCQQHNEYPYTFGGGTKLEIKR
notes: also called 4A1单抗

Molecular target: T1, 牛血清白蛋白 (bovine, UniProt P02769 25-607)
T1 construct: Carrier protein control, without ketamine, in the ELISA screen; also called BSA
Test: ELISA, BSA coated at 1 μg/mL, purified antibody, HRP secondary antibody, OD450

T1 sequence (P02769 25-607 limits assumed): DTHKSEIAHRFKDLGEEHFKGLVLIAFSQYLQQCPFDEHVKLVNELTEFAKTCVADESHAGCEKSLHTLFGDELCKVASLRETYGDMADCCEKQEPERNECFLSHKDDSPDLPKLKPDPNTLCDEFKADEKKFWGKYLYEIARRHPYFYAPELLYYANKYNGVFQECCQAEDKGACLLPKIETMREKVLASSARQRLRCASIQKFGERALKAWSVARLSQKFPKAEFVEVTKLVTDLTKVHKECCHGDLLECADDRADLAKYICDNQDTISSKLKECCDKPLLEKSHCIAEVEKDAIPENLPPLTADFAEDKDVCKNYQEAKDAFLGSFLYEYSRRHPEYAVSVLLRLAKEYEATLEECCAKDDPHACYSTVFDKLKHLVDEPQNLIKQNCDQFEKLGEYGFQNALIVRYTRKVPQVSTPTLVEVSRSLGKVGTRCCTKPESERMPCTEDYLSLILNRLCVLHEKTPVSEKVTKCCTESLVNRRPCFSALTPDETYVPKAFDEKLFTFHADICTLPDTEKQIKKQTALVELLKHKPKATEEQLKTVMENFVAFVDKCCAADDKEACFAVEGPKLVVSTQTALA

| Binder | binding result |
| --- | --- |
| B1 | no binding |
| B2 | no binding |
